The values below come from paper PMC8564274 (Signal Transduction and Targeted Therapy, 2021).

The target in test [1] is T1, prefusion-stabilized ectodomain of the SARS-CoV-2 spike (SARS-CoV-2, WH01, stabilised). As to the kind of experiment: cell-based or functional assay.
The target in test [2] is T1, prefusion-stabilized ectodomain of the …. Put plainly: BLI. The conditions noted are these: both partners purified.

B1: n3113.1 (VHH)
VHH: EVQLVESGGGLVQPGGSLRLSCAASDSSFYDYEMSWVRQAPGKAQEWIGSMYPSGRTYINPSLKSLVTISRDNSKNTLYLQLNSLRAEDTAMYYCVSNWASGSTGDYWGQGTLVTVSS
Turning to B1, the “IC50 of neutralisation of SARS-CoV-2 S pseudovirus” value in test [1] came out at 6 µg/mL. Further, binding in test [2] was put at a Kd of 63.8 nM.
